Laboratory results taken from US20090082299A1 (US Dept. of Health and Human Services, published 2009).

B1: human IL-15 Receptor alpha, whole / full length (plasmid AG79, huIL15RaOPT) (receptor)
chain: ITCPPPMSVEHADIWVKSYSLYSRERYICNSGFKRKAGTSSLTECVLNKATNVAHWTTPSLKCIRDPALVHQRPAPPSTVTTAGVTPQPESLSPSGKEPAASSPSSNNTAATTAAIVPGSQLMPSKSPSTGTTEISSHESSHGTPSQTTAKNWELTASASHQPPGVYPQGHSDTTVAISTSTVLLCGLSAVSLLACYLKSRQTPPLASVEMEAMEALPVTWGTSSRDEDLENCSHHL
B2: human soluble IL-15 Receptor alpha (extracellular part; plasmid AG98, hu sIL15RaOPT) (receptor)
chain: ITCPPPMSVEHADIWVKSYSLYSRERYICNSGFKRKAGTSSLTECVLNKATNVAHWTTPSLKCIRDPALVHQRPAPPSTVTTAGVTPQPESLSPSGKEPAASSPSSNNTAATTAAIVPGSQLMPSKSPSTGTTEISSHESSHGTPSQTTAKNWELTASASHQPPGVYPQGHSDTT

Biological target: human IL-15 expressed from plasmid hIL15tPA6 (human IL-15opt1-tPA6; improved IL-15 with tPA6 SIGPRO peptide) (human, UniProt P40933 49-162)
Test: cell-based or functional assay

Chain of human IL-15 expressed from plasmid hIL15tPA6 (human IL-15opt1-tPA6; improved IL-15 with tPA6 SIGPRO peptide) (P40933 other isoform, or with tags, fused parts or gaps limits assumed): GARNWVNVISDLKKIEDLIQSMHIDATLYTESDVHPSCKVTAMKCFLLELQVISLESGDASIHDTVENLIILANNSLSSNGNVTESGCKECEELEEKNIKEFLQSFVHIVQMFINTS

Binder	total increase in IL-15 steady-state levels on co-expression in 293 cells, ELISA (FIG. 45A)
B1	4 fold
B2	7 fold
